The values below are quoted from earlier work in paper PMC3491057, “Proliferating Cell Nuclear Antigen (PCNA) Interactions in Solution Studied by NMR” (PLoS ONE, 2012).

pKd: −log10 of the molar value.

The target in series [1] is p21 (p2120) 141-160 (Homo sapiens) (UniProt P38936).
The target of series [2] is Fen-1 (Homo sapiens) (UniProt P39748). As to the kind of experiment: SPR.
Series [3] concerns the target p21 (p2122) 139-160 (Homo sapiens) (UniProt P38936).
The target in series [4] is p21 87-164 (Homo sapiens) (UniProt P38936).
Sequence of p21 87-164 (Homo sapiens) (P38936 87-164): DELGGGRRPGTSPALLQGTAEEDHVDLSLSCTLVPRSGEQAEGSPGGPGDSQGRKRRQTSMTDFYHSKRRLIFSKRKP

Sequence of PCNA (P12004 whole entry): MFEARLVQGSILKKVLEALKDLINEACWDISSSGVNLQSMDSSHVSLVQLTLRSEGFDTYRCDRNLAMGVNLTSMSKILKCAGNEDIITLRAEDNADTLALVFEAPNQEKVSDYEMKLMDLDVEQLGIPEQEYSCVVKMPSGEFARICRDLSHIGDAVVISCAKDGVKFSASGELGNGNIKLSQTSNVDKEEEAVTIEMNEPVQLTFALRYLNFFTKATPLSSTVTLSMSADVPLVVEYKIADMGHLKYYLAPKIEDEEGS
Sequence of Fen-1 (Homo sapiens) (P39748 whole entry): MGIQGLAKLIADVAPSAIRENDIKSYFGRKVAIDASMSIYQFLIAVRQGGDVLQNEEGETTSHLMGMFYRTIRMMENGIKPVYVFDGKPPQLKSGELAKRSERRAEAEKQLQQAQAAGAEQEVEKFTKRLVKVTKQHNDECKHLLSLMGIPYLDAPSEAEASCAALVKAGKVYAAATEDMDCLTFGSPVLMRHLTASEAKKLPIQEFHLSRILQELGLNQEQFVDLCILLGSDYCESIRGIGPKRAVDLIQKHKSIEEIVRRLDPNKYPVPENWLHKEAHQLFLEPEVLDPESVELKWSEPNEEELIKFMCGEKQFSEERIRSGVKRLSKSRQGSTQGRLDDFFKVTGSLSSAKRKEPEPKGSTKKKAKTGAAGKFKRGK
Sequence of p21 (p2120) 141-160 (Homo sapiens) (P38936 141-160): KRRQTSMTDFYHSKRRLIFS
Sequence of p21 (p2122) 139-160 (Homo sapiens) (P38936 139-160): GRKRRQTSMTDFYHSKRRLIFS

Turning to PCNA (from UniProt P12004), the pKd is 7.06 in series [1], 7.22 in series [2], 7.08 in series [3] and 7.82 in series [4].
